Assays:
[1] = target: PLK1 PBD protein (residues 367-603) (human) (UniProt P53350); assay: competitive FP, displacement of fluorescein tracer SEQ ID NO: 7 from PLK1 PBD (367-603)
[2] = target: PLK1 PBD protein (residues 367-603) (human) (UniProt P53350); assay: competitive FP
[3] = target: PLK1 326-603 (longer PBD construct) (human) (UniProt P53350); assay: competitive FP, displacement of fluorescent tracer peptide from PLK1 326-603
Chain of PLK1 326-603 (longer PBD construct) (human) (P53350 326-603 limits assumed): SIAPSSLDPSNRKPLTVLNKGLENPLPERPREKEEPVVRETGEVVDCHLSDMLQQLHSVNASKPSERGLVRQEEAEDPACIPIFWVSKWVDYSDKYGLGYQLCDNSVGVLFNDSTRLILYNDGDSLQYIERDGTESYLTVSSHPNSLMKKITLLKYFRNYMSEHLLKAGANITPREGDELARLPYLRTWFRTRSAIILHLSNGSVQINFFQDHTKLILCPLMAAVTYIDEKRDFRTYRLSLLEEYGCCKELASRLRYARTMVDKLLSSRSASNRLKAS

Chain of PLK1 PBD protein (residues 367-603) (human) (P53350 367-603 limits assumed): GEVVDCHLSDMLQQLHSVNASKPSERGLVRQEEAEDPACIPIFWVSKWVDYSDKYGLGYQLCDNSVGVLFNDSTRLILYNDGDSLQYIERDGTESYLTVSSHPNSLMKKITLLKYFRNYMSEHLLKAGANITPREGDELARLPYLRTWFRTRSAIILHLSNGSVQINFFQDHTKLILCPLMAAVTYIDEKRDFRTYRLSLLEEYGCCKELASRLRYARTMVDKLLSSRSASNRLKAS

Substance	IC50 [1] [µM]	also measured
3G1-S[pT]PNGL (4-ethylbenzoic acid) (Sample No. 5788) (peptide)	16.5	–
3G2-S[pT]PNGL (4-butylbenzoic acid) (Sample No. 5827) (peptide)	8.6	–
Ac-AHS[pT]AI (sample no. 5782) (peptide)	15	fold higher IC50 (against Ac-LHS[pT]AI, sample no. 5781) [2]: 3 fold
Ac-LHS[pT]AI (sample no. 5781) (peptide)	5	fold less potent than the parent peptide containing the N-terminal LLC [2]: 6 fold; fold more potent than the non-acetylated version (sample no. 5649) [2]: 40 fold
LHS[pT]AI (sample no. 5649) (peptide)	200	–
S[pT]PNGL (sample no. 5714) (peptide)	> 600	–

These reach a lower IC50 [1]. Values come first.

IC50 [1] [µM]	Substance	also measured
3	LDCS[pT]PNGL (sample no. 5795) (peptide)	–
2	Ac-PLHS[pT]A (sample no. 5743) (peptide)	–
0.5	Ac-LLCS[pT]PNGL (sample no. 5821) (peptide)	–
0.42	LLCS[pT]PNGL, native phospho-CDC25c PBD binding sequence (sample no. 292) (peptide)	IC50 [3]: 1.3 µM

From patent US20160011195A1
